Assay results reported in patent US20230375530A1, “HUMAN BLOOD-BRAIN BARRIER MODEL FOR IMMUNOLOGICAL STUDIES” (WISCONSIN ALUMNI RESEARCH FOUNDATION, priority 2020, published 2023).

Key:
[1] = test system: UMM- and DMM-differentiated BMEC-like cells
Method: Unconditioned medium method (UMM) (14, 16) and defined medium method (DMM) (17) were slightly modified and used to differentiate brain microvascular endothelial-like cells (BMEC-like cells). In brief, hiPSCs were seeded onto a Matrigel-coated plate in mTeSR1 supplemented with 10 μM ROCK inhibitor Y-27632 (Selleckchem, Houston, TX, USA) for 24 hours (day −3 or day −4). […] At day 0, cells were induced to differentiate using specific medium for each method: For UMM, medium was switched to unconditioned medium (DMEM/F12 with 20% Knockout serum replacement, 1× non-essential amino acids, 0.5× Glutamax, and 0.1 mM β-mercaptoethanol) and changed every day for 6 days. For DMM, medium was switched to DeSR1 (DMEM/F12 with 1× non-essential amino acids, 0.5× Glutamax, and 0.1 mM β-mercaptoethanol) supplemented with 6 μM CHIR99021 (Selleckchem, Houston, TX, USA) and cultured for 24 hours. […]
(§1) Permeability of EC monolayers was assessed by measuring the clearance of sodium fluorescein (NaFl, 376.3 Da, Sigma-Aldrich) as previously described (16). […] Medium samples containing fluorescent tracer that had diffused across the monolayers were collected from the bottom well every 15 min for a total of 60 min, and fluorescence intensity was measured in a Tecan Infinite M1000 multi-well reader (Tecan Trading AG, Männedorf, Switzerland). […]

[2] = test system: EECM-BMEC-like cell monolayers; format: in vitro ADME, human
Method: EPCs purified as described above were plated on collagen IV (10 μg/ml)-coated plates in hECSR medium in the presence of 5 μM ROCK inhibitor Y-27632 of 10′000-20′000/cm^2 as described before (33). Twenty-four hours later, medium was changed to hECSR without ROCK inhibitor and then medium was changed every 2 days. Once the cells reached 100% confluency (FIG. 3B (i)), the cells were passaged using Accutase (Innovative Cell Technologies, San Diego, CA, USA). In detail, medium was removed and 1 ml of Accutase was added to the 6-well plate and cells were carefully observed under an inverted microscope (Zeiss Axiovert 25). Once endothelial cells started to become round (FIG. 3B (ii)), the endothelial cells were physically detached by tapping the 6-well plate (FIG. 3B (iii)). […] These cell densities were found optimal for achieving closed monolayers. Coating with collagen IV/fibronectin for Transwell filters was chosen as it was previously shown to be optimal for growing primary BMECs and for UMM-BMEC-like cells. […]
Bovine pericytes (15), the human brain pericyte cell line (HBPCT) (34), the human astrocyte cell line (hAST) (35), and hiPSC-derived astrocytes (iPS_AC) (29) were obtained and maintained as previously described. […] Transendothelial electrical resistance (TEER) was measured using a Volt-Ohm-Meter (Millicell ERS-2, MERSSTX01-electrode). […]

[3] = test system: hPSC-derived endothelial progenitors (Passage 1 ECs); test: Immunocytochemistry of Passage 1 ECs treated with Wnt ligands, CHIR or conditioned media; format: cell-based, human; settings: for fraction of GLUT-1+ ECs vs control: Passage 1 ECs, 6 days, Wnt3a 20 ng/mL, Wnt7a 50 ng/mL, Wnt7b 50 ng/mL; for EC purity (proportion of ECs compared to SMLCs): Passage 1 cultures, 6 days treatment
Method: Collagen IV (Sigma-Aldrich) was dissolved in 0.5 mg/mL acetic acid to a final concentration of 1 mg/mL. Collagen IV-coated plates were prepared by diluting a volume of this stock solution 1:100 in water, adding the resulting solution to tissue culture plates, or #1.5 glass bottom plates (Cellvis, Sunnyvale, CA) for cells intended for confocal imaging (1 mL per well for 6-well plates, 0.5 mL per well for 12-well plates, 0.25 mL per well for 24-well plates), and incubating the plates for 1 h at RT. Collagen IV coating solution was removed and EPCs obtained as described above were suspended in hECSR medium and plated at approximately 3×10^4 cells/cm^2. In some experiments, cells were suspended in NR-CM or Astro-CM. In some experiments, ligands and small molecules were added to hECSR medium: CHIR 99021 (Tocris) was used at 4 μM except where indicated; DMSO (Sigma-Aldrich) was used as a vehicle control for CHIR; Wnt3a (R&D Systems) was used at 20 ng/mL; Wnt7a (Peprotech, Rocky Hill, NJ) was used at 50 ng/mL; Wnt7b (Abnova, Tapei, Taiwan) was used at 50 ng/mL; R-spondin 1 (Rspo1; Peprotech) was used at 50 ng/mL; doxycycline was used at 1, 2, or 4 μg/mL. The hECSR medium or CM, including any ligands or small molecules, was replaced every other day until confluent (typically 6 days). We denote this time point “Passage 1.”
Immunocytochemistry was performed in 24-well plates. Cells were washed once with 500 μL DPBS and fixed with 500 μL cold (−20° C.) methanol for 5 min, except cells intended for calponin/SM22a and CD31/Ki67 detection, which were fixed with 500 μL of 4% paraformaldehyde for 15 min. Cells were washed three times with 500 μL DPBS and blocked in 150 μL DPBS supplemented with 10% goat serum (Life Technologies) for 1 h at room temperature, except cells intended for calponin/SM22α detection, which were blocked and permeabilized in DPBS supplemented with 3% BSA and 0.1% Triton X-100, or cells intended for CD31/Ki67 detection, which were blocked and permeabilized in DPBS supplemented with 5% non-fat dry milk and 0.4% Triton X-100. Primary antibodies diluted in 150 μL of the above blocking solutions (see Table 6 for antibody information) were added to cells and incubated overnight at 4° C. on a rocking platform. Cells were washed three times with 500 μL DPBS. Secondary antibodies diluted in 150 μL of the above blocking solutions (see Table 6 for antibody information) were added to cells and incubated for 1 h at room temperature on a rocking platform, protected from light. Cells were washed three times with 500 μL DPBS, followed by 5 min incubation with 500 μL DPBS plus 4 μM Hoechst 33342 (Life Technologies). Images were acquired using an Eclipse Ti2-E epifluorescence microscope (Nikon, Tokyo, Japan) with a 20× objective or an A1R-Si+ confocal microscope (Nikon) with a 100× oil objective. Confocal images were acquired with 1 μm slice spacing.
Images were analyzed using FIJI (ImageJ) software. For epifluorescence images, 5 fields (20×) were analyzed per well, with 3-4 wells per treatment condition. For quantification of cell number, EC colonies were manually outlined, and the Analyze Particles function was used to estimate the number of nuclei within the EC colonies. Nuclei outside the EC colonies were manually counted. EC purity (% EC) was calculated as the number of nuclei within EC colonies relative to total nuclei. To estimate % GLUT-1^+ ECs, cells within the EC colonies with membrane-localized GLUT-1 immunoreactivity (e.g., arrowheads in FIG. 24B) were manually counted. To estimate % Ki67^+ ECs, cells within the EC colonies with at least one nuclear-localized Ki67 punctum were manually counted. For quantification of fluorescence intensity in epifluorescence images, EC colonies were manually outlined, and the Measure function was used to obtain the mean fluorescence intensity for each image channel (fluorophore). A cell-free area of the plate was similarly quantified for background subtraction. […]

Method for hiPSC-derived naïve ECs: CD34^+ CD31^+ endothelial progenitor cells (EPCs) were differentiated from hiPSCs as described (32, 33). In brief, hiPSCs were seeded onto a Matrigel-coated plate in mTeSR1 supplemented with 5 μM ROCK inhibitor Y-27632 for 24 hours (day −3). Seeding densities at day −3 were optimized between 16′000/cm^2 to 132′000/cm^2 depending on donor and passage in order to obtain high number of CD34^+ CD31^+ EPCs. At day 0 and day 1, medium was changed to LaSR basal medium (Advanced DMEM/F12, 2.5 mM GlutaMAX, and 60 μg/ml ascorbic acid) supplemented with 8 μM CHIR99021. At day 2, medium was switched to LaSR basal medium and changed every day for another 3 days. […] Purified EPCs were seeded onto collagen IV/fibronectin-coated Transwell filters at a density of 100′000/cm^2 or collagen-IV (10 μg/ml)-coated culture plates at a density of 10′000-20′000/cm^2 in hECSR medium and used for assay or further extended EC culture.
as §1

O=C([O-])c1ccccc1-c1c2ccc(=O)cc-2oc2cc([O-])ccc12.[Na+].[Na+] [sodium fluorescein]
permeability to sodium fluorescein [1]: less than 0.6 ×10^−4 cm/min | lower permeability compared to naïve ECs [2]: ~10 fold | PeNaFl, permeability to sodium fluorescein (hiPSC-derived naïve ECs): 2-10 ×10^−3 cm/min

B1: Wnt3a: ligand widely used to activate canonical Wnt/β-catenin signaling (R&D Systems) (protein, UniProt P56704 19-352, looked up)
Protein Wnt-3a: SYPIWWSLAVGPQYSSLGSQPILCASIPGLVPKQLRFCRNYVEIMPSVAEGIKIGIQECQHQFRGRRWNCTTVHDSLAIFGPVLDKATRESAFVHAIASAGVAFAVTRSCAEGTAAICGCSSRHQGSPGKGWKWGGCSEDIEFGGMVSREFADARENRPDARSAMNRHNNEAGRQAIASHMHLKCKCHGLSGSCEVKTCWWSQPDFRAIGDFLKDKYDSASEMVVEKHRESRGWVETLRPRYTYFKVPTERDLVYYEASPNFCEPNPETGSFGTRDRTCNVSSHGIDGCDLLCCGRGHNARAERRREKCRCVFHWCCYVSCQECTRVYDVHTCK
fraction of GLUT-1+ ECs vs control [3]: significant increase | EC purity (proportion of ECs compared to SMLCs) [3]: not Wnt3a

B2: Wnt7a: recombinant Wnt ligand (Peprotech) (protein, UniProt O00755 32-349, looked up)
Protein Wnt-7a: LGASIICNKIPGLAPRQRAICQSRPDAIIVIGEGSQMGLDECQFQFRNGRWNCSALGERTVFGKELKVGSREAAFTYAIIAAGVAHAITAACTQGNLSDCGCDKEKQGQYHRDEGWKWGGCSADIRYGIGFAKVFVDAREIKQNARTLMNLHNNEAGRKILEENMKLECKCHGVSGSCTTKTCWTTLPQFRELGYVLKDKYNEAVHVEPVRASRNKRPTFLKIKKPLSYRKPMDTDLVYIEKSPNYCEEDPVTGSVGTQGRACNKTAPQASGCDLMCCGRGYNTHQYARVWQCNCKFHWCCYVKCNTCSERTEMYTCK
fraction of GLUT-1+ ECs vs control [3]: slightly increased | EC purity (proportion of ECs compared to SMLCs) [3]: increased the proportion of ECs

B3: Wnt7b: recombinant Wnt ligand (Abnova) (protein, UniProt P56706 25-349, looked up)
Protein Wnt-7b: ALSSVVALGANIICNKIPGLAPRQRAICQSRPDAIIVIGEGAQMGINECQYQFRFGRWNCSALGEKTVFGQELRVGSREAAFTYAITAAGVAHAVTAACSQGNLSNCGCDREKQGYYNQAEGWKWGGCSADVRYGIDFSRRFVDAREIKKNARRLMNLHNNEAGRKVLEDRMQLECKCHGVSGSCTTKTCWTTLPKFREVGHLLKEKYNAAVQVEVVRASRLRQPTFLRIKQLRSYQKPMETDLVYIEKSPNYCEEDAATGSVGTQGRLCNRTSPGADGCDTMCCGRGYNTHQYTKVWQCNCKFHWCCFVKCNTCSERTEVFTCK
fraction of GLUT-1+ ECs vs control [3]: not Wnt7b alone

B4: Rspo1: potentiator of Wnt signaling (protein, UniProt Q2MKA7 21-263, looked up)
R-spondin-1: SRGIKGKRQRRISAEGSQACAKGCELCSEVNGCLKCSPKLFILLERNDIRQVGVCLPSCPPGYFDARNPDMNKCIKCKIEHCEACFSHNFCTKCKEGLYLHKGRCYPACPEGSSAANGTMECSSPAQCEMSEWSPWGPCSKKQQLCGFRRGSEERTRRVLHAPVGDHAACSDTKETRRCTVRRVPCPEGQKRRKGGQGRRENANRNLARKESKEAGAGSRRRKGQQQQQQQGTVGPLTSAGPA
EC purity or expression of GLUT-1, claudin-5 or caveolin-1 ([3]; Rspo1 50 ng/mL in combination with Wnt ligands): did not affect
